Test results reported in patent US20160106863A1 (IMMUNOGEN, published 2016).

B1: huML66-sulfo-SPDB-1d conjugate (antibody, human IgG1, kappa, V domains shown)
VH: QVQLQESGPGLVKPSETLSLTCTVSGLSLASNSVSWIRQPPGKGLEWMGVIWNHGGTDYNPSIKSRLSISRDTSKSQVFLKMNSLTAADTAMYFCVRKGGIYFDYWGQGVLVTVSS
VL: DTVLTQSPSLAVSPGERATISCRASESVSTLMHWYQQKPGQQPKLLIYLASHRESGVPARFSGSGSGTDFTLTIDPMEAEDTATYYCQQSRNDPWTFGQGTKLELKR
modifications: compound 1d linked via sulfo-SPDB linker, average of 3.0 molecules per antibody; attachment residues not stated

Key:
T47D cells (human) = T47D cells (human) (UniProt P15328); test: flow cytometry binding on T47D cells
EGFR = EGFR (UniProt P00533 25-1210, limits assumed); test: cell-based or functional assay

Sequence of T47D cells (human) (P15328 25-234, stated change not applied): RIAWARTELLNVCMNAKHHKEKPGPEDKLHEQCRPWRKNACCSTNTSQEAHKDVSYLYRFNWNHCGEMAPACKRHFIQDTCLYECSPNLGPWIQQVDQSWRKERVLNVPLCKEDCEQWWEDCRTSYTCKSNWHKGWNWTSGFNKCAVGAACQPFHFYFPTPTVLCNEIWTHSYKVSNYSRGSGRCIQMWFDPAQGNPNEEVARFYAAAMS

Molecule | EC50 (T47D cells (human)) [nM] | EC50 in pM, in vitro cytotoxicity (WST-8), Detroit562 cells (EGFR) [pM] | EC50 in pM, in vitro cytotoxicity (WST-8), Detroit562 cells, + block (excess unconjugated antibody) (EGFR) [pM] | EC50 in pM, in vitro cytotoxicity (WST-8), NCI-H292 cells (EGFR) [pM] | EC50 in pM, in vitro cytotoxicity (WST-8), NCI-H292 cells, + block (excess unconjugated antibody) (EGFR) [pM] | EC50 in pM, in vitro cytotoxicity (WST-8), NCI-H1703 cells (EGFR) [pM] | EC50 in pM, in vitro cytotoxicity (WST-8), NCI-H1703 cells, + block (excess unconjugated antibody) (EGFR) [pM]
huMOV19 antibody | 0.203 | – | – | – | – | – | –
B1 | – | 110 | 960 | 20 | 690 | 70 | 1310
